Data taken from patent US7189694B2, “Inhibitors of autophosphorylation protein kinases” (University of Florida Research Foundation, Inc., priority 2003, dated 2007).
“Also recorded” adds a separate entry of the source.

What was measured:
recombinant human JAK2 = biological target: T1, recombinant human JAK2 (Homo sapiens, UniProt O60674); test: In vitro JAK2 kinase assay (32P, SDS-PAGE, autoradiography); type: biochemical; conditions: peptide at 50 μM
T1 construct: purchased Upstate Biotechnology, Lake Placid, N.Y
T1 sequence (O60674 whole entry): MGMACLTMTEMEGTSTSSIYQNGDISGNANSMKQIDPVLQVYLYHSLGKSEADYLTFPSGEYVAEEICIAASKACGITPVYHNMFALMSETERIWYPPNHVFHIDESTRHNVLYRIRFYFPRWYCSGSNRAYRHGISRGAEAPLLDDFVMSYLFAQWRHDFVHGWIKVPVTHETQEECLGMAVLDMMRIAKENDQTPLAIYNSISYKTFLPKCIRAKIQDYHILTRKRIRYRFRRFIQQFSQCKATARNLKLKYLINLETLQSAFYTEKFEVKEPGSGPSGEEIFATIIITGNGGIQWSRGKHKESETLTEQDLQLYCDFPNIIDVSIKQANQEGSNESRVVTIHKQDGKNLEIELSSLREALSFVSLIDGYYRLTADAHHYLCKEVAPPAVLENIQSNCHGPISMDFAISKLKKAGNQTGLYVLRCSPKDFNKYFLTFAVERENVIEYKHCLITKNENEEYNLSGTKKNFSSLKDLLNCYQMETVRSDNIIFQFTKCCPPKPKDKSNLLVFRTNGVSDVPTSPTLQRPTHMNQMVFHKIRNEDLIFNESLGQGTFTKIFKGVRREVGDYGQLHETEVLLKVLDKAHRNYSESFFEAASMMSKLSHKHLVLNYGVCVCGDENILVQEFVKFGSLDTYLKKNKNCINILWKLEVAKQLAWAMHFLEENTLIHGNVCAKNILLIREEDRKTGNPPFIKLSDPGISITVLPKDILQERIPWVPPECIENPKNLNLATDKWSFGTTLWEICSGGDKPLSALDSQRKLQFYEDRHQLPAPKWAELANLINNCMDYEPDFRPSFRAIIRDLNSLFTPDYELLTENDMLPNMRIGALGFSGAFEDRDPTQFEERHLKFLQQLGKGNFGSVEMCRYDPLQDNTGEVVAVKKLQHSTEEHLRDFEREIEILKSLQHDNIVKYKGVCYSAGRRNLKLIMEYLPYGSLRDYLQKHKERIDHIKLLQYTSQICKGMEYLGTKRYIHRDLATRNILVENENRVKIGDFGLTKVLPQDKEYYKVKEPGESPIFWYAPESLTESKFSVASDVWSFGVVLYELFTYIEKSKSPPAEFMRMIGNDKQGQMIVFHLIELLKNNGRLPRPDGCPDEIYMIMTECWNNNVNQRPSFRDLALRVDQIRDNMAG
Procedure: Determination of JAK2 autophosphorylation activity was performed in reaction mixtures containing recombinant human JAK2 immobilized on agarose beads (Upstate Biotechnology, Lake Placid, N.Y.), 1 μCi/μl of [^32P]γ-ATP (Amersham Biosciences, Piscataway, N.J.), and either Tkip or JAK 2 WT peptide incubated in kinase buffer (10 mM HEPES [pH 7.4], 50 mM sodium chloride, 0.1 mM sodium orthovanadate, 5 mM magnesium chloride, 5 mM manganese chloride). JAK2 kinase assays were performed in 35 μL reaction volumes containing 10.5 μL Tkip, 20 μL JAK2 agarose beads, 1 μL sIFNGR-1, and 3.5 μL [^32P]γ-ATP incubated at 30° C. for 30 min with intermittent agitation. […] EGFR, VEGFR, and JAK2 kinase reactions were terminated with the addition of 5 μl 6×SDS sample buffer (0.5 M Tris-HCl [pH 6.8], 36% glycerol, 10% SDS, 9.3% DTT, 0.012% bromophenol blue). Incubation of JAK2 agarose beads in SDS sample buffer (100° C.) was designed to elute bound proteins from the agarose beads. The reaction mixtures were separated on a 10% SDS polyacrilamide gel. Autoradiography was used to determine phosphorylation activity.

VEGFR = biological target: T2, VEGFR (Homo sapiens, UniProt P17948); test: In vitro VEGFR autophosphorylation kinase assay; type: biochemical; conditions: peptide at 50 μM; FIG. 2B
T2 construct: purchased Calbiochem, San Diego, Calif
T2 sequence (P17948 27-1338): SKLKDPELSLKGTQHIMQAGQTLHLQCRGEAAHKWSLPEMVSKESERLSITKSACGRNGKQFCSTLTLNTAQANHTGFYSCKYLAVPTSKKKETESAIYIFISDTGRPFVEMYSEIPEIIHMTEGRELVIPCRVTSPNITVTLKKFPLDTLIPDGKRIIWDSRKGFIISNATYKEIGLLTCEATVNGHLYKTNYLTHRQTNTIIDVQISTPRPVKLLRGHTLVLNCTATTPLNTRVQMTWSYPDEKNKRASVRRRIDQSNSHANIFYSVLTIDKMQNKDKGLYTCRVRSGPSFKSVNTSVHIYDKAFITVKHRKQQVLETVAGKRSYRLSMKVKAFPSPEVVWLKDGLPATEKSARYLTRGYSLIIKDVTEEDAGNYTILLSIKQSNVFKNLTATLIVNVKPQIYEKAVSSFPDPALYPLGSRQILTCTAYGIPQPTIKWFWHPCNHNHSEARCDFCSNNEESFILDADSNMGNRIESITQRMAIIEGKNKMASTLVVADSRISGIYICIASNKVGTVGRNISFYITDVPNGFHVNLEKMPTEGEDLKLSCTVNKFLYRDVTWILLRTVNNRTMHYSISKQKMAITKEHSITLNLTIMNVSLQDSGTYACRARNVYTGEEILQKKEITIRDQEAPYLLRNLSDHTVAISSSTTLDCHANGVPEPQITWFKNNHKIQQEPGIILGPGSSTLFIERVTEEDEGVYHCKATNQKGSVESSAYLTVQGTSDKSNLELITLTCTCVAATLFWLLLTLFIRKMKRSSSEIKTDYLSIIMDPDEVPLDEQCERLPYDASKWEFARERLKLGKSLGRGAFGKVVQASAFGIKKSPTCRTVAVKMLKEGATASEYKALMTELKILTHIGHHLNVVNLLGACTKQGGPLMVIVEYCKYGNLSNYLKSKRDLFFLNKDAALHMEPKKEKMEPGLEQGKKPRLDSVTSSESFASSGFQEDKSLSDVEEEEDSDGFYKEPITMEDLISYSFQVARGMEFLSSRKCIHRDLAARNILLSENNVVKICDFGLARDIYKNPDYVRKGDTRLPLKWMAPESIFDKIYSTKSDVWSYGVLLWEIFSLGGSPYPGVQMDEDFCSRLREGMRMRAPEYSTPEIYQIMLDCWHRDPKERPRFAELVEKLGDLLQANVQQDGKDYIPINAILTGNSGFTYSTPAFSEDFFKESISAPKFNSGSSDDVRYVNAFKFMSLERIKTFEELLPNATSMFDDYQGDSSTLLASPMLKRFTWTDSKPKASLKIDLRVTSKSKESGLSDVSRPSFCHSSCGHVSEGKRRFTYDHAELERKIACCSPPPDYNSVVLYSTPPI
Procedure: (§1) In vitro Kinase Assays: Autophosphorylation activity of EGFR and VEGFR-1 was measured in a reaction mixture containing kinase buffer (20 mM Tris-HCl [pH 7.5], 2 mM dithioreitol, 50 mM potassium chloride, 0.3 mM sodium orthovanadate, 5 mM magnesium chloride, 10 mM glycerophosphate, 2 mM EGTA, […] manganese chloride), Tkip, substrates, and 5 μCi of [^32P]γ-ATP (specific activity 6000 Ci/mmol; 1 mCi=37 Mbq) (Amersham Biosciences, Piscataway, N.J.). EGFR and VEGFR in vitro kinase assays were carried out in 22.5 μL reaction volumes containing 10 μL Tkip, 2.5 μL substrates, and 10 μL [^32P]γ-ATP incubated at 30° C. for 10 min. EGFR (supplied precomplexed with EGF) was obtained from Upstate Biotechnology (Lake Placid, N.Y.). VEGFR and VEGF were obtained from Calbiochem (San Diego, Calif.) and Peprotech (Rocky Hill, N.J.), respectively.
(§2) Determination of JAK2 autophosphorylation activity was performed in reaction mixtures containing recombinant human JAK2 immobilized on agarose beads (Upstate Biotechnology, Lake Placid, N.Y.), 1 μCi/μl of [^32P]γ-ATP (Amersham Biosciences, Piscataway, N.J.), and either Tkip or JAK 2 WT peptide incubated in kinase buffer (10 mM HEPES [pH 7.4], 50 mM sodium chloride, 0.1 mM sodium orthovanadate, 5 mM magnesium chloride, 5 mM manganese chloride). […]

[1] = system: experimental allergic encephalomyelitis; test: Experimental allergic encephalomyelitis (EAE) in MBP-immunized NZW mice; type: in vivo
Procedure: NZW mice were injected intraperitoneally with PBS or Tkip (63 μg/mouse) every other day starting the day of immunization with myelin basic protein (MBP) for induction of EAE. Mice were followed daily for signs of EAE, and mean severity of paralysis for each group was graded based on the following scale: 1, loss of tail tone, 2, hind leg weakness, 3, paraparesis, 4, paraplegia, 5, moribund, death. […] All mice in the control group had disease (disease incidence=4/4), while one mouse in the Tkip group had disease (disease incidence=1/5).
NZW mice were immunized with myelin basic protein (MBP) (300 ug) emulsified in complete Freund's adjuvant for the induction of experimental allergic encephalomyelitis (EAE). Tkip peptide (63 μg/mouse) was administered to mice every other day starting the day of immunization. Phosphate buffered saline (PBS) was used as the vehicle of transfer and as the control agent for the treatment of the control group. Mice were followed daily for signs of EAE and mean severity of paralysis for each group was graded based on the scale presented in the legend of FIG. 9. […] Furthermore, the mean severity of disease for the control group (2.1) was twice as high as that of the Tkip group (0.8) at its peak. The time of onset of disease for the control group and Tkip-treated group was similar (24 days post immnunization). Thus, treatment of MBP-immunized mice with Tkip peptide protects them from the autoimmune disease, EAE.

[2] = biological target: T3, p-JAK2 WT peptide (phosphorylated at 1007Y) (Homo sapiens, UniProt O60674); test: Solid phase binding of biotinylated phosphorylated JAK2 WT peptide to immobilized Tkip; conditions: FIG. 4
T3 construct: made in house; host or cells: chemical synthesis (Fmoc)
Procedure: (§3) Binding assays: For ELISA binding assays Tkip and other peptides to be tested were bound to 96-well plates in 0.1 M carbonate binding buffer (pH 9.6) at a final concentration of 3 μg/well (50 μl). Wells were then washed three times with wash buffer containing 0.9% NaCl and 0.05% tween-20 in PBS and blocked with 2% gelatin and 0.05% tween-20 in PBS for 1 h at room temperature. Wells were then washed three times with wash buffer and incubated with various concentrations of biotinylated JAK2 WT peptide and biotinylated P-JAK2 WT peptide for 1 h at room temperature in blocking buffer. Following incubation, wells were washed five times with wash buffer to remove any unbound biotinylated peptides. Bound biotinylated peptides were detected by incubation with a 1:500 dilution of NEUTRAVIDIN biotin binding-protein conjugated with horseradish peroxidase (Molecular Probes, Eugene, Oreg.) in blocking buffer for 1 h at room temperature. Wells were then washed five times with wash buffer and developed with a solution of o-phenylenediamine (OPD) in stable peroxidase buffer (Pierce, Rockford, Ill.). The assay was stopped with the addition of 2 M H2SO4 (50 μl) to each well. Absorbance was measured using a 450 microplate reader (Bio-rad, Hercules, Calif.) at 490 nm. Control experiments were carried out as described above in the absence of immobilized peptides.

JAK2/IFNGR-1 = biological target: T4, JAK2/IFNGR-1 (Homo sapiens, UniProt O60674); test: JAK2 kinase assay processed on P81 phosphocellulose discs (32P incorporation); type: biochemical; conditions: peptide at 50 μM; FIG. 2D
T4 construct: purchased Upstate Biotechnology, Lake Placid, N.Y
T4 sequence (O60674 whole entry): as the sequence (O60674 whole entry) above
Procedure: (§4) Src kinase activity was performed with a Src substrate peptide (KVEKIGEGTYGVVYK) (SEQ ID NO. 73) using a Src kinase assay kit according to the manufacturer's specifications (Upstate Biotechnology, Lake Placid, N.Y.) according to the manufacturer's specifications. Briefly, Src substrate peptide was incubated in Src kinase buffer (100 mM Tris-HCl [pH 7.2], 125 mM MgCl2, 25 mM MnCl2, 2 mM EGTA, 0.02 mM Na3VO4, and 2 mM dithioreitol), 5 μCi of [^32P]γ-ATP (75 mM MnCl2, 500 μM ATP), recombinant human Src (Upstate Biotechnology, Lake Placid, N.Y.), and Tkip, JAK2 WT peptide, or in the absence of peptide for 10 min at 30° C. Reaction mixtures were spotted on P81 phosphocellulose discs (supplied with kit) to bind phosphorylated Src substrate peptide, washed three times for 5 min with 0.75% phosphoric acid, washed twice with acetone for 1 min, and placed in vials to which 4 ml of ScintiVerse® (Fisher, Pittsburgh, Pa.) was added. The phosphocellulose discs were analyzed using a liquid scintillation counter to measure ^32P-labeled proteins. For comparison with Src, JAK2 was also assayed using the same procedure. The assay was setup as described above for the Src kinase assay. However, reactions were incubated in the presence of 2 mM dithioreitol in the buffer to release JAK2 from the agarose beads. Following the appropriate incubation period reactions were gently centrifuged. […]

c-src = biological target: T5, c-src (Homo sapiens, UniProt P12931); test: Src kinase assay with substrate peptide (P81 discs); type: biochemical; conditions: peptide at 50 μM; FIG. 2C
T5 construct: purchased Upstate Biotechnology, Lake Placid, N.Y
Procedure: as §4

EGFR = biological target: T6, EGFR (Homo sapiens, UniProt P00533); test: In vitro EGFR autophosphorylation kinase assay; type: biochemical; conditions: peptide at 50 μM; FIG. 2E
T6 construct: human EGFR isolated from A431 cells; purchased Upstate Biotechnology, Lake Placid, N.Y; host or cells: A431 cells (endogenous receptor, isolated)
Procedure: as §1, §2

[3] = biological target: T7, JAK2 WT peptide (JAK2 autophosphorylation site 1001LPQDKEYYKVKEP) (Homo sapiens, UniProt O60674); test: ELISA binding of biotinylated JAK2 WT peptide to solid-phase peptides
T7 construct: made in house; host or cells: chemical synthesis (Fmoc)
Procedure: as §3

WLVFFVIFYFFR (amino acid sequence of a peptide that can be used according to the present invention) [Tkip]
inhibition of JAK2 autophosphorylation (recombinant human JAK2): completely inhibited; also recorded: also inhibited | inhibition of JAK2 phosphorylation of IFNGR-1 (recombinant human JAK2): completely inhibited; also recorded: also inhibited | inhibition of VEGFR autophosphorylation (VEGFR): did not inhibit | time of onset of disease ([1]; 63 μg/mouse every other day): 24 days post immnunization | mean severity of disease (paralysis scale 1-5) ([1]; 63 μg/mouse every other day, at its peak): 0.8 | incidence of disease (EAE) ([1]; 63 μg/mouse intraperitoneally every other day from day of immunization): 1/5 | fifty percent endpoint concentration, fold lower for p-JAK2 WT binding versus unphosphorylated JAK2 WT binding [2]: approximately 9 fold | binding of Tkip to p-JAK2 WT ([2]; immobilized Tkip): binding was most efficient to p-JAK2 WT | inhibition of 32P incorporation into JAK2/IFNGR-1 (JAK2/IFNGR-1): greater than 95% | inhibition of c-src phosphorylation of a protein substrate (c-src): failed to inhibit | inhibition of EGFR autophosphorylation (EGFR): completely inhibited | binding of biotinylated JAK2 WT peptide to solid-phase peptide ([3]; FIG. 1A, ELISA, peptides coated on 96-well plates): bound only to Tkip peptide in a dose-dependent manner | binding of Tkip to unphosphorylated JAK2 WT ([3]; FIG. 4, immobilized Tkip): bound both JAK2 WT and p-JAK2 WT in a dose-dependent manner
